What was measured:
Human PCNA = biological target: T1, Human PCNA (human, UniProt P12004 1-261); assay: pull-down; GST-SNM1A peptides held on glutathione-agarose beads, washed with PBS with 250 mM to 1 M salt; 150 ng purified PCNA or PCNA^ub added, tumbled at 4 °C for 1 h, washed as before; immunoblot for PCNA, PCNA^ub, GST; settings: both partners purified
T1 construct: PCNA (proliferating cell nuclear antigen), human; also called native PCNA; purified PCNA; source: E. coli BL21, purified (IMAC, gel filtration on Superdex 200)
T1 sequence (P12004 whole entry): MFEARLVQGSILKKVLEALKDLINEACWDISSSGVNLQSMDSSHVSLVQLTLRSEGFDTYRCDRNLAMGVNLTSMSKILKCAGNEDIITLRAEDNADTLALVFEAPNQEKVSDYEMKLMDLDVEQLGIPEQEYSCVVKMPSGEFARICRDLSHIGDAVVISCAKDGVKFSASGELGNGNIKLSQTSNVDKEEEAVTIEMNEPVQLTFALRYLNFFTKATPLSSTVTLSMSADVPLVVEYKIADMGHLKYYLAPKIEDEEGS

[1] = biological target: T2, Lysine 164 monoubiquitinated human PCNA (PCNA^ub) (human | , UniProt P12004 1-261; P0CG48 1-76, monoubiquitinated at lysine 164 | C-terminus joined to lysine 164 of PCNA); assay: as above; settings: both partners purified
T2 construct: PCNA (proliferating cell nuclear antigen), human, carrying one ubiquitin on lysine 164; ubiquitin, conjugated in vitro to lysine 164 of PCNA; also called ubiquitinated PCNA; lysine-164 monoubiquitinated PCNA

B1: GST-tagged SNM1A PIP box peptide (GST-PIP) (domain or fragment, human)
chain: ARHPSTKVMKQMDIGVYFGLPPKRKEEKLL
notes: SNM1A (DCLRE1A), human, stretch spanning the PIP box; numbering as for NP_001258745.1; Cloned into pET-41b (MfeI/SalI); also called wildtype PIP box peptide; not shown: GST, N-terminal, kept
binding result (Human PCNA): binds | binding result [1]: binds

B2: GST-tagged SNM1A peptide spanning the PBZ and UBZ motifs (GST-PBZ-UBZ) (domain or fragment, human)
chain: RPVYDGYCPNCQMPFSSLIGQTPRWHVFECLDSPPRSETECPDGLLCTSTIPFHYKRYTHFLLAQSRAG
notes: SNM1A (DCLRE1A), human, stretch spanning the UBZ and PBZ motifs; numbering as for NP_001258745.1; Cloned into pET-41b; also called UBZ/PBZ peptide; PBZ-plus-UBZ; not shown: GST, N-terminal, kept
binding result [1]: binds
